Test [1] addresses neuropilin-2 on mouse oligodendrocyte precursor cells (OPCs) (mouse) (UniProt O35375). Nature of the test: cell-based or functional assay.
In test [2] the target is VEGFR-3 on mouse oligodendrocyte precursor cells (OPCs) (mouse) (UniProt P35917). As to the kind of experiment: cell-based or functional assay.
Sequence of UniProt P35917 (P35917 25-1363): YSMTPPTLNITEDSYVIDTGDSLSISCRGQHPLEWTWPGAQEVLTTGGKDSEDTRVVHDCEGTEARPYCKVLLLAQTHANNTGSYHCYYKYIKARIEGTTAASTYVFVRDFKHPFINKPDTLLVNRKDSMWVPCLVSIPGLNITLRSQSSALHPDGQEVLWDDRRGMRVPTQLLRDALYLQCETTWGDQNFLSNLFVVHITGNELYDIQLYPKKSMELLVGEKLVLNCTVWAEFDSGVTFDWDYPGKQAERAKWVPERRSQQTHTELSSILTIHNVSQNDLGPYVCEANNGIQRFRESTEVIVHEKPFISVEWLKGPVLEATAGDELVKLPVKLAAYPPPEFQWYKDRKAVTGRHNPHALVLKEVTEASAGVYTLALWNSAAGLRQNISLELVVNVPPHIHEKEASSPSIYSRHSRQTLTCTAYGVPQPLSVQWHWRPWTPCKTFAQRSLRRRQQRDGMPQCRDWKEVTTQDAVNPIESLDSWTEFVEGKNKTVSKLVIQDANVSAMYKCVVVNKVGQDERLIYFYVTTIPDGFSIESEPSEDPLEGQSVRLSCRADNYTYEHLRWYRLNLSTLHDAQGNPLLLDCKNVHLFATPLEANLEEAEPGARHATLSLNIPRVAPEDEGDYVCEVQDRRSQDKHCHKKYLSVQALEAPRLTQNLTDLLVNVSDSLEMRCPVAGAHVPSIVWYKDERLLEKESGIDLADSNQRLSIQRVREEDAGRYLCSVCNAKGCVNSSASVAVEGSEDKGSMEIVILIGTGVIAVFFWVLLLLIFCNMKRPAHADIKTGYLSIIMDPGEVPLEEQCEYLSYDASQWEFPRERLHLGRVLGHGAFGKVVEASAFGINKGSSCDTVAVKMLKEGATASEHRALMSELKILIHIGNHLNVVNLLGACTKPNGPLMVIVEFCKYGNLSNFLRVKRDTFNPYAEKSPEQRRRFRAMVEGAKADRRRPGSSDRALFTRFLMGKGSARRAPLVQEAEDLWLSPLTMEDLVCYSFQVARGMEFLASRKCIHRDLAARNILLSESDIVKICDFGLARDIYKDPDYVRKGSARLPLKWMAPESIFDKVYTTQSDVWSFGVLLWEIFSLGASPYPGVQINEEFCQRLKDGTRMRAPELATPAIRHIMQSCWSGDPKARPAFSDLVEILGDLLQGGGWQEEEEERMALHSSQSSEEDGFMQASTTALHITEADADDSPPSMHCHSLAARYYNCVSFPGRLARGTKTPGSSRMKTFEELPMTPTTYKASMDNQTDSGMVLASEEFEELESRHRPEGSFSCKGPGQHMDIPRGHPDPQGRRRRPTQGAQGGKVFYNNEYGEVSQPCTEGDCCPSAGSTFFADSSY

Sequence of UniProt O35375 (O35375 21-931): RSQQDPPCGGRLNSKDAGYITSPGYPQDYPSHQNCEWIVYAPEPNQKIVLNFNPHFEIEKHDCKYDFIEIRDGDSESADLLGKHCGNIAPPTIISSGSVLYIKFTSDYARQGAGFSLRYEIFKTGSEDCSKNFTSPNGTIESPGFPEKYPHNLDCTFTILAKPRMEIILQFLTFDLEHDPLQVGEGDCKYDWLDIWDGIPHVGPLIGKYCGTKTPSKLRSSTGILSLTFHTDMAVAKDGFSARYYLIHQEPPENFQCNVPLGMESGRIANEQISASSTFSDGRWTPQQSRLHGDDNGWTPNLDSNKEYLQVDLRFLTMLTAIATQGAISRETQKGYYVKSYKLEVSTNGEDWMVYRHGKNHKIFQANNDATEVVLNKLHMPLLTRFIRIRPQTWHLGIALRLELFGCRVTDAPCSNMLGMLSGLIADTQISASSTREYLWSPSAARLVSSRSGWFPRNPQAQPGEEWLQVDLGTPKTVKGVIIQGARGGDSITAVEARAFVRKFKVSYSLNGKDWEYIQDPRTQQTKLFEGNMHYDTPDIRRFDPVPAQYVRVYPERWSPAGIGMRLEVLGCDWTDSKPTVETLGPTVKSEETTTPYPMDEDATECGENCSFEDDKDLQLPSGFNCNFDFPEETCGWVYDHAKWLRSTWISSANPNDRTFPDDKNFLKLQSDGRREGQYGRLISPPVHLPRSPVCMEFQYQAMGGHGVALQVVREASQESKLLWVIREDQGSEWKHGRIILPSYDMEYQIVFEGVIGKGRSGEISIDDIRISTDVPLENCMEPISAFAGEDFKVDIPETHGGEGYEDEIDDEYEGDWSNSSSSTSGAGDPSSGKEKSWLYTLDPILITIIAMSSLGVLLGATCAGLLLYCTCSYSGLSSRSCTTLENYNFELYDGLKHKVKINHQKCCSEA

In turn, “VEGF-C (supernatant of COS cells secreting VEGF-C) (ligand)” displayed a BrdU incorporation of A2B5^+ OPCs in test [1] of 2 fold.

In turn, “human VEGF-C156S (R&D Systems) (from UniProt P49767 103-227) (ligand)” displayed a proliferation of OPCs (BrdU^+/A2B5^+ cells) in test [2] of 50%. As to “recombinant rat VEGF-C (Reliatech) (from UniProt O35757 99-223) (ligand)”, in test [2], the migration of Olig2^+ OPCs through the filter (transwell) is over 2 fold and the proliferation of OPCs (BrdU^+/A2B5^+ cells) was determined as 2 fold.

The values above are taken from patent US20080057028A1.
